One experiment has as its target T1, Rhesus ANG2 (rhesus, UniProt F6QXG0 19-496).
T1 sequence: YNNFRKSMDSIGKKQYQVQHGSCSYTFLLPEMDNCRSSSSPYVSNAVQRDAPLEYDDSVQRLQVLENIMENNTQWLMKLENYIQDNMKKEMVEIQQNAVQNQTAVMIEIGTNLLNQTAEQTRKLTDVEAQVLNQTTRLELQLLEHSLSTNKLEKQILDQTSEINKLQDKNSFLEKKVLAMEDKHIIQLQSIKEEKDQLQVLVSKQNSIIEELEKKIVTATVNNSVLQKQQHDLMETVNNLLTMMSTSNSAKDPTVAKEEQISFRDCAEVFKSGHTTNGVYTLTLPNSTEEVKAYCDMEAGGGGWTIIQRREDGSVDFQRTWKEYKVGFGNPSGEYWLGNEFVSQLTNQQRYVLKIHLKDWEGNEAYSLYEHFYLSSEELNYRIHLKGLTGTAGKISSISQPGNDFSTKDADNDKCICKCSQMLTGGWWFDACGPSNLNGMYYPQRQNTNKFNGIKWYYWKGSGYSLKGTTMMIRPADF
The experiment is described as follows: SPR, Biacore T200, antibody captured on Protein G chip, experiment 1. As for the experimental part: (§1) The antibody was diluted to 1 μg/mL and was captured onto channel 2 for 30 s, and channel 1 was the blank control channel. The gradient-diluted Human ANG2, Rhesus ANG2, Rabbit ANG2, Rat ANG2 and Mouse ANG2 were sequentially injected into channels 1 and 2 of the chip, from low to high concentrations (0-32 nM), at a flow rate of 30 μL/min, with one concentration per cycle, and with 180 s association time and 1200 s dissociation time at 25° C. Finally, the chip was regenerated using Glycine pH 1.5 at 30 μL/min for 30 s. The affinity assay was repeated three times.
A general note: In SPR one partner is held on a chip, and binding of the other changes the refractive index at the surface.

The next experiment concerns the target T2, Rabbit ANG2 (rabbit, UniProt G1T9B3 19-496).
T2 sequence: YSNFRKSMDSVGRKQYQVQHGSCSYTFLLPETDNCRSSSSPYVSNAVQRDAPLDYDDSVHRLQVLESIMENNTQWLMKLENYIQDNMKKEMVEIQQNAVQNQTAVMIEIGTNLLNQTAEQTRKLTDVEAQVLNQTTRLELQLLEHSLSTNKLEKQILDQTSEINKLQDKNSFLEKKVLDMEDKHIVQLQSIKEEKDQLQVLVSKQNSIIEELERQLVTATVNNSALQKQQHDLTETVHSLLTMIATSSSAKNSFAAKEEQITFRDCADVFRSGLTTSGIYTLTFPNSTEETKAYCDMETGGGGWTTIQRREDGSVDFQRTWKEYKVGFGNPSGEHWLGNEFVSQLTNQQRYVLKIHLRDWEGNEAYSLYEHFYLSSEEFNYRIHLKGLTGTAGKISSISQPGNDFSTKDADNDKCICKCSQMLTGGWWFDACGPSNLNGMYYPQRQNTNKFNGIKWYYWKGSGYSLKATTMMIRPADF
Described as above. Here is the method: as §1

The next experiment addresses T3, human Ang2 (human, UniProt O15123 19-496, limits assumed).
T3 construct: also called hAng2; h Ang2
T3 sequence: T1 sequence with V279I, L284F, V291I, A410G, G468A
The experiment is described as above. As for the experimental part:
as §1

Experiment [1] has as its target T4, recombinant biotinylated hAngiopoietin-2 protein (R&D, Cat. No.: BT623B/CF) (human, UniProt O15123 19-496, limits assumed, biotinylated (sites not given)).
T4 construct: Bought protein; also called Biotin Ang2; human biotin Ang2 protein
T4 sequence: T1 sequence with V279I, L284F, V291I, A410G, G468A
Description: ELISA: biotin Ang2 (R&D BT623B/CF) captured on coated streptavidin (SA), antibody titrated, anti-human IgG-HRP, OD450-OD620, GraphPad fit. Here is the method: The binding of 81H10 and hz81H10.4 of the present invention to human biotin Ang2 protein was measured in an SA-biotin Ang2-based ELISA assay.
SA protein (Thermo Fisher) was diluted to 1 μg/ml with PBS, and was coated onto a microtiter plate at 100 μl/well at 4° C. overnight. After three washes with PBST, the plate was blocked with 5% BSA for 1 h. Biotin Ang2 (R&D, Cat. No. BT623B/CF) was incubated at a concentration of 0.5 μg/ml for 1 h. Gradient diluted antibodies (maximum concentration 20 nM, 1:3 serial dilution) were added to the microtiter plate and incubated for 2 h, and the plate was washed three times with PBST. […] Then the plate was washed for 6 times with PBST. Chromogenic reaction was performed with 100 ul TMB and terminated with 100 ul 2N sulfuric acid. The reading of OD₄₅₀-OD₆₂₀ was taken by microplate reader. The concentration-dependent curve was fitted with GraphPad based on the OD₄₅₀-OD₆₂₀.

Where a chain is given by its changes, count along the chain named.

As a reminder, the Kd is the equilibrium constant for the complex coming apart. Low values mean a tighter complex, high ones a looser complex. For orientation: koff means the rate constant with which the complex falls apart. As a reminder, the kon is the second-order rate constant of association. Read a low kon as slower complex formation. The EC50 is the concentration needed to bring the measured effect to its halfway point.

B1: humanized antibody hz81H10.4 (antibody, human IgG1, kappa, V domains shown)
VH: EVQLVESGGGLVKPGGSLRLSCAASGFTFSNYWMNWVRQAPGKGLEWVAEIRLKSNNYATHYAESVKGRFTISRDVSKNTVYLQMNSLKTEDTAVYYCTDTAPFAYWGQGTLVTVSS
VL: DIQMTQSPSSLSASVGDRVTITCKASQDVGTDVAWYQQKPGKAPKLLIYWASTRHTGVPSRFSGSGSGTDFTLTISSLQPEDFATYYCQQYSSYPLTFGGGTKVEIKR
notes: also called IBI335
Consider B1, for which the Kd in the experiment with Rhesus ANG2 was determined as 0.183 nM; with Rabbit ANG2 it was 0.518 nM; in the experiment with human Ang2 it was 0.0694 nM. The koff with Rhesus ANG2 was determined as 4.87e-05 s⁻¹; with Rabbit ANG2, 0.000153 s⁻¹; in the experiment with human Ang2, 1.74e-05 s⁻¹. In addition, the kon amounted to 266000 M⁻¹ s⁻¹ in the experiment with Rhesus ANG2, 294000 M⁻¹ s⁻¹ in the experiment with Rabbit ANG2 and 250000 M⁻¹ s⁻¹ with human Ang2. In addition, in experiment [1], the EC50 worked out at 0.0212 nM.

(Values after patent US20240239881A1 (Innovent, published 2024).)
